What was measured:
[1] = tested on: platelet poor plasma (PPP); test: Dynamic in vitro clotting in endothelialized microfluidic device; format: biochemical, human; settings: platelet-poor plasma under flow
Procedure: To characterize the effect of microgels on clotting in vitro, a endothelialized microfluidics device that accurately recapitulates the cellular, physical, and hemodynamic environment of microcirculation, was used as previously described, Jackson, et al., Journal of Thrombosis and Haemostasis: JTH 7 Suppl 1:17-20 (2009). For these experiments, clotting of platelet poor plasma (PPP) was analyzed in the absence or presence of fibrin-binding microgels of varying degrees of crosslinking in real time using confocal microscopy. As a control, clotting of platelet rich plasma (PRP) or PPP in the presence of non-fibrin binding microgels were also investigated. Microgels or buffer were added to PPP immediately prior to injection into the microfluidics device. To visualize clotting, PPP was spiked with Alexa Fluor-488 labeled fibrinogen. Endothelial cells were stained with Cell Mask Deep Red (Invitrogen) and microgels were labeled with Alexa Fluor 546. For experiments utilizing PRP, platelets were stained with Cell Mask Red (Invitrogen). Samples were flowed at 1.1 μL/min and imaged continuously for 20 min. Clotting overtime was characterized through imaging processing with Image J (NIH). Each microfluidic device is comprised of three regions of different flow rates, comprising four endothelialized channels.

[2] = biological target: T1, fibrin (Homo sapiens, UniProt P02671+P02675+P02679); test: Interferometry (Fortébio Blitz) binding of sdFv-microgels to fibrin layer; settings: several concentrations
T1 sequence (P02671 36-866 limits assumed): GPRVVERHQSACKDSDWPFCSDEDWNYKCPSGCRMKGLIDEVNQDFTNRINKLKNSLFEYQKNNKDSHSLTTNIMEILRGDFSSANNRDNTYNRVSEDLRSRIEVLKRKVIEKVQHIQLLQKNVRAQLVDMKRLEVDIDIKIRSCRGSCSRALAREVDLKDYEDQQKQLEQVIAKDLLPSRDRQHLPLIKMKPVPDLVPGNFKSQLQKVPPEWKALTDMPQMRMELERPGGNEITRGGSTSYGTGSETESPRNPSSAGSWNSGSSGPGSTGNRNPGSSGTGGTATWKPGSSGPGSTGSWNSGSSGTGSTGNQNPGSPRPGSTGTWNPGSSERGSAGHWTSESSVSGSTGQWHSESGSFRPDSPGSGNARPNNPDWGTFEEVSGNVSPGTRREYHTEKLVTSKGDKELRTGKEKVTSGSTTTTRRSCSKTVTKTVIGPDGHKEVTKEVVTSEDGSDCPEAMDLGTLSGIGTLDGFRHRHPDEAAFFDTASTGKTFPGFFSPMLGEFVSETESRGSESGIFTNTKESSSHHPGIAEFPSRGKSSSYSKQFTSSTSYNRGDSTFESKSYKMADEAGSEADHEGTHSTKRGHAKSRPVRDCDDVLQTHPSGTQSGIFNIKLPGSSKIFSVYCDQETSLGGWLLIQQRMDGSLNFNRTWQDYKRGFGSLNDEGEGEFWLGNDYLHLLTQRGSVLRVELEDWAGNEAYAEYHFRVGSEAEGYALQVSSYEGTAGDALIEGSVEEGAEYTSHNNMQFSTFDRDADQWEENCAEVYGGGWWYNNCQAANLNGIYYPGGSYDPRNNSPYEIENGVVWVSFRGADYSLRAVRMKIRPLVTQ
T1 sequence (P02675 45-491 limits assumed): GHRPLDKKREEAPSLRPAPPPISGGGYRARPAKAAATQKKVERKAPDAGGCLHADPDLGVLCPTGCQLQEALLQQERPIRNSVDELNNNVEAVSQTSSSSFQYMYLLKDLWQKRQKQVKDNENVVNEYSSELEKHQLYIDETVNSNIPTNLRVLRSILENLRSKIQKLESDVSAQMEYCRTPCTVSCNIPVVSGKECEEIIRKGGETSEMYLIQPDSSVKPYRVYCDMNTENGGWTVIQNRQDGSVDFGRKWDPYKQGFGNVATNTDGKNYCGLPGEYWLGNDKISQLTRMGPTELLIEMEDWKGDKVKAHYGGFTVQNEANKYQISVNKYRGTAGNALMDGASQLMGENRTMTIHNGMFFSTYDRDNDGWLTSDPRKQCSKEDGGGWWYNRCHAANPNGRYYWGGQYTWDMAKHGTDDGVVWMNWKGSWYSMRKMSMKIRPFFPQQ
T1 sequence (P02679 27-453): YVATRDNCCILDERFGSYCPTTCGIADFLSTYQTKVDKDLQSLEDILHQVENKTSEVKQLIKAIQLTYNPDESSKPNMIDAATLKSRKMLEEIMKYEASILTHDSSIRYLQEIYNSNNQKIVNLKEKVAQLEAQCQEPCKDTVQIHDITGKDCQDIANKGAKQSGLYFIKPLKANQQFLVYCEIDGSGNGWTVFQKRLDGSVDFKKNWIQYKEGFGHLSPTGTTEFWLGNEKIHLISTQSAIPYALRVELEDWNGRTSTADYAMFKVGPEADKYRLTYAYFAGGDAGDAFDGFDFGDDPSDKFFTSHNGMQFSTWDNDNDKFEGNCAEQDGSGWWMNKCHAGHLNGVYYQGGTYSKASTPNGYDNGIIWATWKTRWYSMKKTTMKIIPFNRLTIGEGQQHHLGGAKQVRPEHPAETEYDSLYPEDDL
Procedure: Ultralow crosslinked (ULC) microgels (microgels) with highly deformable, dendritic architecture were prepared using standard precipitation polymerization techniques previously described, Clemetson, K. J., Thrombosis Research, 129:220-224 (2012). A 95% pNIPAm/5% AAc composition (poly(N-isopropylacrylamide-co-acrylic acid) was utilized for microgel synthesis which results in microscaffolds ˜1-μm diameter in the swollen state. Co-polymerization with acrylic acid was utilized to allow for carboxylic acid chemoligation sites for sdFv attachment, Fries, et al., British Journal of Anesthesia, 105:116-121 (2010); Granville-Chapman, et al., Injury, 42:447-459 (2011). Following synthesis, microgels were purified using ultracentrifugation and conjugated to fibrin specific sdFvs using standard EDC/NHS chemistry. For confocal fluorescence microscopy experiments, sdFvs were also labeled with maleimide-Alexa Fluor-488 following conjugation to the microgels. To determine basic microgels properties, the particles were characterized using dynamic light scattering to determine the hydrodynamic radius and atomic and force microscopy imaging to characterize morphology. Finally, to ensure that microgels coupled to fibrin-specific sdFvs retained fibrin-binding capabilities, binding of sdFv-microgels to fibrin was determined through interferometry analysis utilizing the Fortébio Blitz system. […]

B1: PLPs: ultra-low crosslinked pNIPAm-AAc microgels conjugated to fibrin-specific sdFv H6 (conjugate)
VH: QVQLLESGGGLVQPGGSLRLSCAASGDRFTHNDMGWVRQAPGKGLEWVSTIPTTDGSTYYADSVKGRFTISRDNSKSTLYLQMNSLRAEDTAVYYCATGYMWKAPAYVKYWGQGTLVTVSSAAAEQKLISEEDLNSAAHYTDIG
- fibrin clot formation in response to thrombin [1]: successfully rescued fibrin clot formation
- binding of sdFv-microgels to the fibrin layer [2]: increased binding to the fibrin layer with increasing concentrations

From US11419948B2, “Functionalized microgels with fibrin binding elements” (Georgia Tech Research Corporation, priority 2013, dated 2022)
